For three molecules, binding result and binding signal results are on record in PMC2636851.

The target in data set [1] is T1, Mcm10-ID wild type (Xenopus laevis, UniProt Q5EAW4 230-427).
T1 sequence: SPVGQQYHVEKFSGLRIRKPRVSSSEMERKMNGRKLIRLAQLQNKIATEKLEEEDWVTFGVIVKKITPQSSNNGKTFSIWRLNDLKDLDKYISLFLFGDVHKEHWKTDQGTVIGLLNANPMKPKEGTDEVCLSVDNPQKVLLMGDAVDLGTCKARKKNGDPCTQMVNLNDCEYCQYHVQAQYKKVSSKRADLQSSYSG
Nature of the data set: NMR.

Data set [2] addresses T2, Mcm10-ID K293A (Xenopus laevis, UniProt Q5EAW4 230-427, K293A).
T2 sequence: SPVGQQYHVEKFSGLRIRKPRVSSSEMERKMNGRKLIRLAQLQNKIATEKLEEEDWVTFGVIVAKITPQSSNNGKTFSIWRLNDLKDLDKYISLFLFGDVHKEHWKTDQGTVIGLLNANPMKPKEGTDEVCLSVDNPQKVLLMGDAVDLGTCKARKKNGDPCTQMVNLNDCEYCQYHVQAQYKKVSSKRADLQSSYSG
Nature of the data set: fluorescence anisotropy. For orientation: Fluorescence polarisation rises when a labelled molecule tumbles more slowly, as on binding a larger partner.

Data set [3] concerns the target T3, Mcm10-ID K385E/K386E (Xenopus laevis, UniProt Q5EAW4 230-427, K385E;K386E).
T3 sequence: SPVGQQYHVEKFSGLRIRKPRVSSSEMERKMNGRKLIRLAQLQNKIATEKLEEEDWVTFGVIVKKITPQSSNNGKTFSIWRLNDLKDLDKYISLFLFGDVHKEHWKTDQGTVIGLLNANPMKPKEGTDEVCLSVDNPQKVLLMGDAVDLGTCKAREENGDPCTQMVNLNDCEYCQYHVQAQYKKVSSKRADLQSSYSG
Kind of data set: fluorescence anisotropy.

In data set [4] the target is T4, Mcm10-ID F326A (Xenopus laevis, UniProt Q5EAW4 230-427, F326A).
T4 sequence: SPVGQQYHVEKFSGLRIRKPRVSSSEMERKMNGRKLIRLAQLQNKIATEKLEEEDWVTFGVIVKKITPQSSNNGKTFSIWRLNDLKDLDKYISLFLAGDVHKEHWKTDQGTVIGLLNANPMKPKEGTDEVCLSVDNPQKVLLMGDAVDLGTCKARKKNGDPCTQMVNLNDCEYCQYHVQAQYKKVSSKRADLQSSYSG
Nature of the data set: fluorescence anisotropy.

The target of data set [5] is T5, Mcm10-ID K412E/K413E (Xenopus laevis, UniProt Q5EAW4 230-427, K412E;K413E).
T5 sequence: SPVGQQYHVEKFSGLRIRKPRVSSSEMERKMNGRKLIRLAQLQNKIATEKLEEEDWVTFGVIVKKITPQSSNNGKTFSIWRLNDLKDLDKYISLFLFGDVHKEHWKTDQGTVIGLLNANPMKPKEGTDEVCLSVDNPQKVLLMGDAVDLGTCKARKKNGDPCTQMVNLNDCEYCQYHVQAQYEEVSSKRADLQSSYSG
Nature of the data set: fluorescence anisotropy.

In data set [6] the target is T6, Mcm10-ID K417E/R418E (Xenopus laevis, UniProt Q5EAW4 230-427, K417E;R418E).
T6 sequence: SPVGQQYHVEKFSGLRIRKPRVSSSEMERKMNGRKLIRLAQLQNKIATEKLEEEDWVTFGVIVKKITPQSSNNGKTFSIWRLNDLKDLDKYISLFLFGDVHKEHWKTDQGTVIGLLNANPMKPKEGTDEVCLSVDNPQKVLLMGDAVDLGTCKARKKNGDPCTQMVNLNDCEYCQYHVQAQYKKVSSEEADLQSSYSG
Nature of the data set: fluorescence anisotropy.

Data set [7] has as its target T1, Mcm10-ID wild type. Nature of the data set: fluorescence anisotropy.

For GGCGCATTGTCGCAA (ssDNA) [15mer ssDNA (NMR)], the binding result in data set [1] is “binds”.
Regarding ATGGTAGGCAACCATGTAGTAGTCA (ssDNA) [25mer ssDNA], the binding signal is 5 fold reduction in affinity vs wild type in data set [2] and 10 fold reduction in affinity vs wild type in data set [3]. In addition, the binding result in data set [4], in data set [5] and in data set [6] was “binds” in each case.
For the molecule ATGGTAGGCA (ssDNA) [10mer from 5' end of 25mer], the binding result in data set [7] is listed as “binds”.
